Results as given in patent US20140140998.

T1: GST-TβRI intracellular domain fusion protein
T1 chain: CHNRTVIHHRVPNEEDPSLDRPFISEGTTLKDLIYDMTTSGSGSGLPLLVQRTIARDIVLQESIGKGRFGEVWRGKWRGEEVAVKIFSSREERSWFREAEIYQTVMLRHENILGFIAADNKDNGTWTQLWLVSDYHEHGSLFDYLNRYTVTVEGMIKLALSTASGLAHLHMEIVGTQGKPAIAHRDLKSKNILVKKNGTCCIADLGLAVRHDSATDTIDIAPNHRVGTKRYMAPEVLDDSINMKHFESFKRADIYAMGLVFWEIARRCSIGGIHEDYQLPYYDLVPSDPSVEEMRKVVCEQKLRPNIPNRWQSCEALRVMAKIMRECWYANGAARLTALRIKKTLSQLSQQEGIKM

T2: type I receptor of transforming growth factor beta (TβRI), endogenous, full length
T2 chain: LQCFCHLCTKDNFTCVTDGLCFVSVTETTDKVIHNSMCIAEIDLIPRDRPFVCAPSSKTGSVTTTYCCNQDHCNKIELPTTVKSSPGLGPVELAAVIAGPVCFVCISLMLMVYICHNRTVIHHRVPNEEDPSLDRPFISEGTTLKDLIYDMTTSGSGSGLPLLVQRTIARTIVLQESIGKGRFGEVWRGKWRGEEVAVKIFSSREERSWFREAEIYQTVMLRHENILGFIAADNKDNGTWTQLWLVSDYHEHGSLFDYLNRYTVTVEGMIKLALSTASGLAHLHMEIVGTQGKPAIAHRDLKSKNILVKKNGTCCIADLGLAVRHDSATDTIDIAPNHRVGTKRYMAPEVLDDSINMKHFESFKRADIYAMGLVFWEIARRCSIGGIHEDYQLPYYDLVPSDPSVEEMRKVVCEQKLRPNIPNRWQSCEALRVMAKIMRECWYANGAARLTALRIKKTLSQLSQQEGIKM

B1: recombinant glutathione-S-transferase-tagged TRAF6 (GST-TRAF6) fusion protein (protein)
chain: MSLLNCENSCGSSQSESDCCVAMASSCSAVTKDDSVGGTASTGNLSSSFMEEIQGYDVEFDPPLESKYECPICLMALREAVQTPCGHRFCKACIIKSIRDAGHKCPVDNEILLENQLFPDNFAKREILSLMVKCPNEGCLHKMELRHLEDHQAHCEFALMDCPQCQRPFQKFHINIHILKDCPRRQVSCDNCAASMAFEDKEIHDQNCPLANVICEYCNTILIREQMPNHYDLDCPTAPIPCTFSTFGCHEKMQRNHLARHLQENTQSHMRMLAQAVHSLSVIPDSGYISEVRNFQETIHQLEGRLVRQDHQIRELTAKMETQSMYVSELKRTIRTLEDKVAEIEAQQCNGIYIWKIGNFGMHLKCQEEEKPVVIHSPGFYTGKPGYKLCMRLHLQLPTAQRCANYISLFVHTMQGEYDSHLPWPFQGTIRLTILDQSEAPVRQNHEEIMDAKPELLAFQRPTIPRNPKGFGYVTFMHLEALRQRTFIKDDTLLVRCEVSTRFDMGSLRREGFQPRSTDAGV
B2: tumor necrosis factor receptor-associated factor 6 (TRAF6), endogenous (protein)
chain: B1 chain

Experiments:
[1] = biological target: T1, GST-TβRI intracellular domain fusion …
[2] = biological target: T2, type I receptor of transforming growth …

Row | Protein | polyubiquitination of TβRI in an in vitro ubiquitination assay [1] | Lys63-linked polyubiquitination of TβRI and formation of the TβRI ICD after TRAF6 siRNA [2]
1 | B1 | TRAF6 was shown to induce the polyubiquitination of TβRI in an in vitro ubiquitination assay | 
2 | B2 |  | a knock-down of endogenous TRAF6 in PC-3U cells with an anti-TRAF6 siRNA also resulted in loss of both Lys63-linked polyubiquitination in TβRI and the formation of the TβRI ICD in response to TGFβ stimulation
